{"source": "patent US20070179086A1", "about": "(Amgen, published 2007)", "data": [{"target": "T1, recombinant human TR-2 with a C-terminal hexahistidine tag (TR-2-His) (human, UniProt O14763 56-207)", "T1 construct": "also called soluble TR-2-His", "test": "SPR Biacore 2000; antibody captured on anti-human antibody chip, 226 nM TR-2-His injected, 25 C, 1:1 model;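 note: goat anti-human capture surface amine-coupled on CM5 chip, HBS-P running buffer with BSA, responses normalized to captured antibody level, kinetics from global 1:1 fitting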; data heterogeneous, fit poorly", "units": {"Kd": "nM", "koff": "s⁻¹", "kon": "M⁻¹ s⁻¹"}, "procedure": "(§1) The kinetics of the binding of anti-TR-2 antibodies A to Q to TR-2 was analyzed using a Biacore® 2000 instrument. High-density goat anti-human antibody surfaces were prepared on CM-5 Biacore® chips using routine amine coupling. Each purified anti-TR-2 antibody was diluted to approximately 1 μg/ml in HBS-P running buffer containing 100 μg/ml BSA. Each anti-TR-2 antibody was captured on a separate surface using a two minute contact time and a five minute wash to stabilize the anti-TR-2 antibody surface on the chip.\n(§2) Additionally, the data for TR-2 binding to anti-TR-2 antibody were normalized for the amount of monoclonal antibody captured on each surface. Each data set was fit globally to a 1:1 interaction model to determine binding kinetics.", "values": [{"binder": "anti-TR-2 antibody N (antibody, V domains shown, also called Ab N) VH: QLVESGGGVVQPGRSLRLSCAASGFTFSSYGMHWVRQAPGKGLEWVAVIWYDGRNKYYADSVKGRFTISRDNSKNTLYLQMNSLRAEDTAVYYCAREVGYCTNGVCSYYYYGMDVWGQGTTVTVSS VL: DIQMTQSPSSLSASVGDRVTITCRASQGISNYLAWFQQKPGKAPKSLIYAASSLQSGVPSKFSGSGSGTDFTLTISSLQPEDFATYYCQQYNSYPLTFGGGTKVEIK", "Kd": 68, "koff": 0.055, "kon": 810000}, {"binder": "anti-TR-2 antibody P (antibody, V domains shown, Human antibody from XenoMouse; also called Ab P) VH: QVQLQESGPGLVKPSQTLSLTCSVSGGSISSGGYYWSWIRQHPGKGLEWIGYIYYSGSTYCNPSLKSRVTISVDTSKNQFSLKLSSVTAADTAVYYCARDNGSGSYDWFDPWGQGILVTVSS VL: DIQMTQSPSSVSASVGDRVTITCRASQGISSWLAWYQQKPGKAPKFLIFVASSFQSGVPSRFSGSGSGTDFTLTISSLQPEDFATYYCQQANSFPRTFGQGTKVEIK", "Kd": 33, "koff": 0.027, "kon": 810000}, {"binder": "anti-TR-2 antibody Q (antibody, V domains shown, Human antibody from XenoMouse; also called Ab Q) VH: QVQMQESGPGLVKPSQTLSLTCTVSGGSISSGDYYWSWIRQHPGKNLEWIGYIYYSGSTYYNPSLKSRVTISVDTSKNQFSLKLSSVTAADTAVYYCARDNGSGSYDWFDPWGQGTLVTVSS VL: DIQMTQSPSSVSASVGDRVTITCRASQGISSWLAWYQQKPGKAPKFLIFVASSLQSGVPSRFSGSGSGTDFTLTISSLQPEDFATYYCQQANSFPRTFGQGTKVEIK", "Kd": 13, "koff": 0.016, "kon": "1.2e+06"}]}, {"target": "T1, recombinant human TR-2 with a …", "test": "SPR Biacore 2000; antibody captured on anti-human antibody chip, 226 nM TR-2-His injected, 25 C, 1:1 model", "units": {"Kd": "nM", "koff": "s⁻¹", "kon": "M⁻¹ s⁻¹"}, "procedure": "as §1, §2", "values": [{"binder": "anti-TR-2 antibody G (antibody, V domains shown, also called Ab G) VH: QVQAEQSGPGLVKPSETLSLTCTVSGGSISNYYWSWIRQPPGKGLEWIGYIYYSGSTKYNPSLKSRVTISVDTSKNQFSLKLTSVTTADTAVYYCARDSPRGFSGYEAFDSWGQGTLVTVSS VL: not shown", "Kd": 31, "koff": 0.019, "kon": 600000}, {"binder": "anti-TR-2 antibody O (antibody, V domains shown, also called Ab O) VH: QVQLQESGPGLVKPSQTLSLTCTVSGGSISSGDYFWSWIRQLPGKGLECIGHIHNSGTTYYNPSLKSRVTISVDTSKKQFSLRLSSVTAADTAVYYCARDRGGDYYYGMDVWGQGTTVTVSS VL: EIVLTQSPGTLSLSPGERATLSCRASQGISRSYLAWYQQKPGQAPSLLIYGASSRATGIPDRFSGSGSGTDFTLTISRLEPEDFAVYYCQQFGSSPWTFGQGTKVEIK", "Kd": 19, "koff": 0.0084, "kon": 440000}, {"binder": "anti-TR-2 antibody H (antibody, V domains shown, also called Ab H) VH: QVQLQESGPGLVKPSQTLSLTCTVSGGSISSDNYYWSWIRQHPGKGLEWIGYIYYSGSTYYNPSLKSRVTISVDTSKNQFSLKLSSVTAADTAVYYCARGVNWNFLFDIWGQGTMVTVSS VL: not shown", "Kd": 9.8, "koff": 0.0084, "kon": 860000}, {"binder": "anti-TR-2 antibody E (antibody, V domains shown, also called Ab E) VH: QVQLVESGGGLVKPGGSLRLSCAASGFTFSDYYMNWIRQAPGKGLEWVSHISSSGSILDYADSVKGRFTISRDNAKNSLYLQMNSLRVEDTAVYYCARDGAAAGTDAFDLWGQGTMVTVSS VL: DIQMTQSPSSLSASVGDRVTITCRSSQSISNYINWYQQRPGKAPNLLIHDVSSFQSAVPSRFSRSGSGTVFTLTISSLQPEDFATYFCQQTYITPFTFGPGTKVDIK", "Kd": 2.1, "koff": 0.0018, "kon": 870000}, {"binder": "anti-TR-2 antibody A (antibody, V domains shown, also called Ab A) VH: QVQLVQSGAEVKKPGASVKVSCKASGYTFTSYDINWVRQATGQGLEWMGWMNPNSDNTGYAQKFQGRVTMTRNTSISTAYMELSSLRSEDTAVYYCARWNHYGSGSHFDYWGQGTLVTVSS VL: DIQMTQSPSSLSASVGDRVTITCRASQSISIYLNWYQQKPGKAPKLLIYAASSLQSGVPLRFSGSGSGTDFTLTISSLQPEDIATYYCQQSYKTPLTFGGGTKVEIK", "Kd": 6.9, "koff": 0.0037, "kon": 530000}, {"binder": "anti-TR-2 antibody J (antibody, V domains shown, also called Ab J) VH: QVQLVESGGGVVQPGRSLRLSCAASGFTFNNYGMHWVRQAPGKGLEWVAVIWYDGSNKYYADSVKGRFTISRDNSKNTLYLQMNSLRAEDTAVYYCARDRTVYSNSSPFYYYYYGMDVWGQGTTVTVSS VL: DIQMTQSPSSLSASVGDRVTITCRTSQSISTYLNWYQQKPGKAPKLLISATSSLQSGVPSRFSGSGSGTDFTLTISSLQPEDFATYYCQQSYSTPLTFGGGTKVEIK", "Kd": 12, "koff": 0.0071, "kon": 570000}, {"binder": "anti-TR-2 antibody K (antibody, V domains shown, also called Ab K) VH: QVQLVESGGGVVQPGRSLRLSCAASGFTFSTYGMHWVRQAPGKGLEWVAVIWYDGSNKYYADSVKGRFTISRDNSKNTLYLQMNSLRAEDTAVYYCARDRTVYSSSSPFYYYYYGMDVWGQGTTVTVSS VL: DIQMTQSPSSLSASVGDRVTITCRASQSISSYLNWYQQKPGKAPKLLISATSSFQSGVPSRFSGSGSGTDFTLTISSLQPEDFAAYYCQQSYSTPLTFGGGTKVEIK", "Kd": 18, "koff": 0.012, "kon": 680000}, {"binder": "anti-TR-2 antibody I (antibody, V domains shown, also called Ab I) VH: QVQLVESGGGLVKPGGSLRLSCAASGFTFSDYYMSWIRQAPGKGLEWVSYISRSGSTIYYADSVKGRFTISRDNAKNSLYLQMNSLRAEDTAVYYCARSLGGMDVWGQGTTVTVSS VL: not shown", "Kd": 4.4, "koff": 0.0013, "kon": 290000}, {"binder": "anti-TR-2 antibody F (antibody, V domains shown, also called Ab F) VH: QVQLVESGGGVVQPGRSLRLSCAASGFTFSYYGIHWVRQAPGKGLEWVAVIWYDGSNKYYADSVKGRFTISRDNSKNTLYLQMNSLRAEDTAVYYCARGRYSSSSWWYFDLWGRGTLVTVSS VL: DIQMTQSPSSLSASVGDRVTITCRASQGISNYLAWYQQKPGKVPKLLIYAASTLQSGVPSRFSGSGSGTDFTLTISSLQPEDVATYYCQKYNSAPLTFGGGTKVEIK", "Kd": 13, "koff": 0.005, "kon": 380000}, {"binder": "anti-TR-2 antibody D (antibody, V domains shown, Human antibody from XenoMouse; also called Ab D) VH: QVQLQESGPGLVKPSQTLSLTCTVSGGSISSGGHYWSWIRQHPGKGLEWIGYIYYSGSAYYNPSLKSRVTISVDTSKNQFSLKLSSVTAADTAVYYCARDDSSGWGFDYWGQGILVTVSS VL: DIQMTQSPSSLSASVGDRVTITCRASQGLRNDLGWFQQKPGKAPKRLIYAASSLQRGVPSRFSGSGSGTEFTLTISSLQPEDFTTYFCLQHNSFPWTFGQGTKVEIK", "Kd": 4.5, "koff": 0.0027, "kon": 620000}, {"binder": "anti-TR-2 antibody C (antibody, V domains shown, Human antibody from XenoMouse; also called Ab C) VH: QVQLQESGPGLVKPSQTLSLTCTVSGGSISSGGHYWSWIRQHPGKGLEWIGYIYYSGSAYYNPSLKSRVTISVDTSKNQFSLKLSSVTAADTAVYYCARDDSSGWGFDYWGQGILVTVSS VL: DIQMTQSPSSLSASVGDRVTITCRASQGLRNDLGWFQQKPGKAPKRLIYAASSLQRGVPSRFSGSGSGTEFTLTISSLQPEDFTTYFCLQHNSFPWTFGQGTKVEIK", "Kd": 3.9, "koff": 0.0026, "kon": 680000}, {"binder": "anti-TR-2 antibody B (antibody, V domains shown, Human antibody from XenoMouse; also called Ab B) VH: QVQLQESGPGLVKPSQTLSLTCTVSGGSISSGGHYWSWIRQHPGKGLEWIGYIYYSGSTYYNPSLKSRVTISVDTSKNQFSLKLSSVTAADTAVYYCARDDSSGWGFDYWGQGILVTVSS VL: DIQMTQSPSSLSASVGDRVTITCRASQGLRNDLGWFQQKPGKVTKRLIYAASSLQRGVPSRFSGSGSGTEFTLTISSLQPEDFATYYCLQHYSFPWTFGQGTKVEIK", "Kd": 19, "koff": 0.011, "kon": 570000}, {"binder": "anti-TR-2 antibody M (antibody, V domains shown, also called Ab M) VH: EVQVVESGGGLVKPGGSLRLSCAASGFTFSSYSMNWVRQAPGKGLEWVSSISSSSSYIYYADSVKGRFTISRDNAKNSLYLQMNSLRAEDTAVYYCARGGSSWYGDWFDPWGQGTLVTVSS VL: DIQMTQSPSSVSASVGDRVTITCRASQGISSWLVWYQQKPGKAPKLLIYAASSLQSGVPSRFSGSGSGTDFTLTISSLQPEDFATYYCQQANSFPFTFGGGTKVEIK", "Kd": 37, "koff": 0.012, "kon": 340000}, {"binder": "anti-TR-2 antibody L (antibody, V domains shown, also called Ab L) VH: QVQLQQWGARLLKPSETLSLTCAVYGGSFSGYYWSWIRQPPGKGLEWIGEINHSGSTNYNPSLKSRVTISVDTSKNQFSLKLRSVTAADTAVYYCARGGSSGYWYFDLWGRGTLVTVSS VL: not shown", "Kd": 18, "koff": 0.011, "kon": 600000}]}]}
